Measurements from patent US12156920B2, “Double-labeled probe for molecular imaging and use thereof” (Deutsches Krebsforschungszentrum, priority 2017, dated 2024).

How the values were obtained:
PSMA = molecular target: T1, PSMA (Homo sapiens, UniProt Q04609); assay: Competitive cell binding assay on LNCaP cells (PSMA binding affinity); conditions: competition against 0.2 nM 68Ga-labeled PSMA-10
T1 construct: endogenous in cells; host or cells: LNCaP cells (ATCC CRL-1740)
Procedure: PSMA^+ LNCaP cells (ATCC CRL-1740) were cultured in RPMI medium supplemented with 10% fetal calf serum and 2 mmol/L L-glutamine (all from PAA). Cells were grown at 37° C. in humidified air with 5% CO2 and were harvested using trypsin-ethylenediaminetetraacetic acid (trypsin-EDTA; 0.25% trypsin, 0.02% EDTA, Invitrogen).
The competitive cell binding assay and internalization experiments were performed as described previously (4). Briefly, the cells (10^5 per well) were incubated with a 0.2 nM solution of ^68Ga-labeled radioligand [Glu-urea-Lys(Ahx)]2-HBED-CC (PSMA-10, precursor ordered from ABX, Radeberg, Germany) in the presence of 12 different concentrations of analyte (0-5000 nM, 100 μL/well). After incubation, the mixture was removed and the wells were washed 3 times with PBS using a multiscreen vacuum manifold (Millipore, Billerica, Mass.). Cell-bound radioactivity was measured using a gamma counter (Packard Cobra II, GMI, Minnesota, USA). The 50% inhibitory concentration (IC50) values were calculated by fitting the data using a nonlinear regression algorithm (GraphPad Software).

[1] = Biodistribution (organ distribution) of 68Ga-labeled compounds; assay type: in vivo, mice; conditions: male, BALB/c nu/nu, mouse, in vivo, iv, 60 pmol, total radioactivity
Procedure: (§1) The precursor peptides [1 nmol in HEPES buffer (580 mg/ml), 90 μL] were added to 40 μL [^68Ga]Ga^3+ eluate (˜40 MBq). The pH was adjusted to 3.8 using 30% NaOH and 10% NaOH, respectively. The reaction mixture was incubated at 98° C. for 10 minutes. The radiochemical yield (RCY) was determined by HPLC. For the experimental tumor models 5×10^6 cells of LNCaP (in 50% Matrigel; Becton Dickinson, Heidelberg, Germany) were subcutaneously inoculated into the right trunk of 7- to 8-week-old male BALB/c nu/nu mice (Charles River). The tumors were allowed to grow until approximately 1 cm^3 in size. The ^68Ga-labeled compounds were injected into a tail vein (1-2 MBq; 60 pmol). […] Organs of interest were dissected, blotted dry, and weighed. The radioactivity was measured using a gamma counter and calculated as % ID/g. All animal experiments complied with the current laws of the Federal Republic of Germany.

[2] = system: LNCaP-tumor bearing balb/c nu/nu mice; assay: as above; assay type: in vivo; conditions: mouse, in vivo
Procedure: as §1

[3] = Organ distribution Tumor (tumor accumulation)
[4] = Tumor-to-Organ ratio T/Intestine

T1 sequence (Q04609 whole entry): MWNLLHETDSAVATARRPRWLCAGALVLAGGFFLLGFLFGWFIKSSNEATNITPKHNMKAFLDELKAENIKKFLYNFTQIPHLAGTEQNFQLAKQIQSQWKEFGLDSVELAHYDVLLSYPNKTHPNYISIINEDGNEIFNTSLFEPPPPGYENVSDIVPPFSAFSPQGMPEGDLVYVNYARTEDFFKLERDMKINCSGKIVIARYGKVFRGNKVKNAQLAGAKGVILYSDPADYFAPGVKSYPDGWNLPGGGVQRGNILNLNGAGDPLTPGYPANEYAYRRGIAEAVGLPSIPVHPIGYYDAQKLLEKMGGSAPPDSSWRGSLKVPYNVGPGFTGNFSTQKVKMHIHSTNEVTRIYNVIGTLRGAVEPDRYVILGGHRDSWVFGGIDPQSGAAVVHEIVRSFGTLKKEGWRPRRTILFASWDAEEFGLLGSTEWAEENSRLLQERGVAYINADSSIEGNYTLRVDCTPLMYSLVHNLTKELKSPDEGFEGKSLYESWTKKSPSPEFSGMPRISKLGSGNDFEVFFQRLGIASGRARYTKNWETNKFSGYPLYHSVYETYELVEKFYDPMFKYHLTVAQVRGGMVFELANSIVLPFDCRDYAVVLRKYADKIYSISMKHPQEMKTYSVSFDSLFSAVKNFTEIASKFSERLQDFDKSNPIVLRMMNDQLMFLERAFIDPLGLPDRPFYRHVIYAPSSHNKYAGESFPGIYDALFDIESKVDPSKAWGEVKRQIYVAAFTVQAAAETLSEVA

SMILES | tissue uptake at 1 h ([1]; Organ distribution Blood) [%ID/g] | tissue uptake at 1 h ([1]; Organ distribution Brain) [%ID/g] | tissue uptake at 1 h ([1]; Organ distribution Heart) [%ID/g] | tissue uptake at 1 h ([1]; Organ distribution Intestine) [%ID/g] | tissue uptake at 1 h ([1]; Organ distribution Kidney) [%ID/g] | tissue uptake at 1 h ([1]; Organ distribution Liver) [%ID/g] | tissue uptake at 1 h ([1]; Organ distribution Lung) [%ID/g] | tissue uptake at 1 h ([1]; Organ distribution Muscle) [%ID/g] | tissue uptake at 1 h ([1]; Organ distribution Spleen) [%ID/g] | tissue uptake at 1 h [1, 3] [%ID/g] | tissue to tissue ratio at 1 h ([1]; Tumor-to-Organ ratio T/Blood) | tissue to tissue ratio at 1 h ([1]; Tumor-to-Organ ratio T/Brain) | tissue to tissue ratio at 1 h ([1]; Tumor-to-Organ ratio T/Heart) | tissue to tissue ratio at 1 h [1, 4] | tissue to tissue ratio at 1 h ([1]; Tumor-to-Organ ratio T/Kidney) | tissue to tissue ratio at 1 h ([1]; Tumor-to-Organ ratio T/Liver) | tissue to tissue ratio at 1 h ([1]; Tumor-to-Organ ratio T/Lung) | tissue to tissue ratio at 1 h ([1]; Tumor-to-Organ ratio T/Muscle) | tissue to tissue ratio at 1 h ([1]; Tumor-to-Organ ratio T/Spleen) | other results
CC1(C)C(/C=C/C2=C(Oc3ccc(S(=O)(=O)O)cc3)C(=C\C=C3/N(CCCCS(=O)(=O)O)c4ccc(S(=O)(=O)O)cc4C3(C)C)/CCC2)=[N+](CCCCCC(=O)NCCOCCOCCNC(=O)CCc2ccc(O)c(CN(CCN(CC(=O)O)Cc3cc(CCC(=O)NCc4cn(CCCCC(=O)N[C@@H](CCC(=O)O)C(=O)N[C@@H](Cc5cnc[nH]5)C(=O)N[C@@H](CCC(=O)O)C(=O)N[C@@H](Cc5cnc[nH]5)C(=O)N[C@@H](CCC(=O)O)C(=O)N[C@@H](Cc5cnc[nH]5)C(=O)NCCCC[C@H](NC(=O)N[C@@H](CCC(=O)O)C(=O)O)C(=O)O)nn4)ccc3O)CC(=O)O)c2)c2ccc(S(=O)(=O)O)cc21 [PSMA-(HE)3-HBED-CC-PEG2-IRDye800CW, Glu-urea-Lys-(HE)3-HBED-CC-PEG2-IRDye800CW] | 1.12 | 0.18 | 1.36 | 1.31 | 109 | 1.25 | 2.34 | 1.18 | 3.47 | 7.59 | 6.8 | 42.6 | 5.57 | 5.8 | 0.07 | 6.08 | 3.24 | 6.45 | 2.19 | Ki (PSMA): 36.7 ± 9.77 nM; tissue uptake at 2 h ([1]; Organ distribution Blood): 0.65 %ID/g; tissue uptake at 2 h ([1]; Organ distribution Brain): 0.23 %ID/g; tissue uptake at 2 h ([1]; Organ distribution Heart): 0.53 %ID/g; tissue uptake at 2 h ([1]; Organ distribution Intestine): 0.67 %ID/g; tissue uptake at 2 h ([1]; Organ distribution Kidney): 55.8 %ID/g; tissue uptake at 2 h ([1]; Organ distribution Liver): 0.76 %ID/g; tissue uptake at 2 h ([1]; Organ distribution Lung): 0.89 %ID/g; tissue uptake at 2 h ([1]; Organ distribution Muscle): 0.47 %ID/g; tissue uptake at 2 h ([1]; Organ distribution Spleen): 0.76 %ID/g; tissue uptake at 2 h ([1]; Organ distribution Tumor): 3.1 %ID/g; Tumor-to-Organ ratio T/Blood [2]: 6.80; Tumor-to-Organ ratio T/Brain [2]: 42.63; Tumor-to-Organ ratio T/Heart [2]: 5.57; Tumor-to-Organ ratio T/Intestine [2]: 5.80; Tumor-to-Organ ratio T/Kidney [2]: 0.07; Tumor-to-Organ ratio T/Liver [2]: 6.08; Tumor-to-Organ ratio T/Lung [2]: 3.24; Tumor-to-Organ ratio T/Muscle [2]: 6.45; Tumor-to-Organ ratio T/Spleen [2]: 2.19
CC1(C)C(/C=C/C2=C(Oc3ccc(S(=O)(=O)O)cc3)C(=C\C=C3/N(CCCCS(=O)(=O)O)c4ccc(S(=O)(=O)O)cc4C3(C)C)/CCC2)=[N+](CCCCCC(=O)NCCOCCOCCNC(=O)CCc2ccc(O)c(CN(CCN(CC(=O)O)Cc3cc(CCC(=O)NCc4cn(CCCCC(=O)NC(CCC(=O)O)C(=O)NC(Cc5c[nH]c6ccccc56)C(=O)NCCCCC(NC(=O)NC(CCC(=O)O)C(=O)O)C(=O)O)nn4)ccc3O)CC(=O)O)c2)c2ccc(S(=O)(=O)O)cc21 (stereo not shown) [PSMA-(WE)1-HBED-CC-PEG2-IRDye800CW, Glu-urea-Lys-(WE)1-HBED-CC-PEG2-IRDye800CW] | 1.61 | 0.15 | 1.49 | 0.96 | 105 | 1.73 | 2.57 | 1 | 12.9 | 3.85 | 2.39 | 25.6 | 2.59 | 4.01 | 0.04 | 2.23 | 1.5 | 3.86 | 0.3 | 
